Here are results for four molecules from paper PMC11514480.

Test in all cases: smFRET
In data set [1] the target is T1, human RPA (RPA70-RPA32-RPA14) (human, UniProt P27694;P15927;P35244 1-616;1-270;1-121).
In another data set the target is yeast RPA (Saccharomyces cerevisiae, UniProt P22336;P26754;P26755 1-621;1-273;1-122).
Data set [2] addresses T1, human RPA (RPA70-RPA32-RPA14). This is another data set of the same source.

Like-named read-outs stand apart in the source and are kept apart here.

T1 sequence (P27694 whole entry, chain 1 of 3): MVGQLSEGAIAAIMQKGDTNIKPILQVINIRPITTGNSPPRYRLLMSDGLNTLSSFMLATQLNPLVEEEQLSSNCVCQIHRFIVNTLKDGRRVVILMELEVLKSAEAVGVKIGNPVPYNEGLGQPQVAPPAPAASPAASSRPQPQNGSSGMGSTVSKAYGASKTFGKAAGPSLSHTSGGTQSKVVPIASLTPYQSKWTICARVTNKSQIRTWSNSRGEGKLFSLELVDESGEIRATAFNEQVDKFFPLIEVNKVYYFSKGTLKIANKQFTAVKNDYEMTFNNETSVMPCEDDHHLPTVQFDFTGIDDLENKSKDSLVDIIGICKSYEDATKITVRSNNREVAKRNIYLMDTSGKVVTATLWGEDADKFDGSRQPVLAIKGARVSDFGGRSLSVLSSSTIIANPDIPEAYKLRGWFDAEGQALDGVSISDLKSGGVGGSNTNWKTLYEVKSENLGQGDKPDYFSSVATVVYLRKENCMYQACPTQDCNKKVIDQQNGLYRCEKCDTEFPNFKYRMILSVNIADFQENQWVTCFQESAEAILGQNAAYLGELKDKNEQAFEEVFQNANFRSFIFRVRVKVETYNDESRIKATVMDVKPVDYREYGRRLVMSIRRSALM
T1 sequence (P15927 whole entry, chain 2 of 3): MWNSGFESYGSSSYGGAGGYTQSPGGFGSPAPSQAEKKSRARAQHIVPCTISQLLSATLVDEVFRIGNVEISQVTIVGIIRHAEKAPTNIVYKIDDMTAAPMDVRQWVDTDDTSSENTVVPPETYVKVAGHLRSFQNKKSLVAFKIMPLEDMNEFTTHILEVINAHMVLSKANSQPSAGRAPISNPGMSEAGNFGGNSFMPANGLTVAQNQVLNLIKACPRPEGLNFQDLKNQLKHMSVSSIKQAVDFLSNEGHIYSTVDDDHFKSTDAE
T1 sequence (P35244 whole entry, chain 3 of 3): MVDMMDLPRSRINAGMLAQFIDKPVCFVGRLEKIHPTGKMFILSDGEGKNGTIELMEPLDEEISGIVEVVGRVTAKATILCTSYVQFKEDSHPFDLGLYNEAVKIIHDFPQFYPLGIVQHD
yeast RPA, sequence (P22336 whole entry, chain 1 of 3): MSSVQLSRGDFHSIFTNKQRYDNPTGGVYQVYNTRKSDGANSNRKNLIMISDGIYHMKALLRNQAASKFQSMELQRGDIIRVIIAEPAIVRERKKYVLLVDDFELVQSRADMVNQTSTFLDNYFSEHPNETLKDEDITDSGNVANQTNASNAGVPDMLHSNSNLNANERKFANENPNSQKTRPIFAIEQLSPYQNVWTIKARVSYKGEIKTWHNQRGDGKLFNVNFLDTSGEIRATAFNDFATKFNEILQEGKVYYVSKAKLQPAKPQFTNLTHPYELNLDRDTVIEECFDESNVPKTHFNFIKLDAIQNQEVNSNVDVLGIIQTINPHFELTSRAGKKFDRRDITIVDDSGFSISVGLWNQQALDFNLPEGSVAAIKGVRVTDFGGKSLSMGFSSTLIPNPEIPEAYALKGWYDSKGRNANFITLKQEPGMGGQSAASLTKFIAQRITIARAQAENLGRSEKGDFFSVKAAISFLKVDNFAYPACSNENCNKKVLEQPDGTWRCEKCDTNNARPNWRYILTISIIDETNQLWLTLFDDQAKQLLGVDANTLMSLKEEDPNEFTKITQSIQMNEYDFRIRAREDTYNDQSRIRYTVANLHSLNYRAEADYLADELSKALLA
yeast RPA, sequence (P26754 whole entry, chain 2 of 3): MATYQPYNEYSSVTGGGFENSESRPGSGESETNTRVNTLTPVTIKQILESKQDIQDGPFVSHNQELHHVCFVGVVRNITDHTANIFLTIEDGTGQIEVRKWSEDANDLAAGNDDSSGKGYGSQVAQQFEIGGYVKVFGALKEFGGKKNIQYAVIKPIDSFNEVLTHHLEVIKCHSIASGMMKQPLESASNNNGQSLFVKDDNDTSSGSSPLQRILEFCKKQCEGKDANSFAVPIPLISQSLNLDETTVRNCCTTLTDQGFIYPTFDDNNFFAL
yeast RPA, sequence (P26755 whole entry, chain 3 of 3): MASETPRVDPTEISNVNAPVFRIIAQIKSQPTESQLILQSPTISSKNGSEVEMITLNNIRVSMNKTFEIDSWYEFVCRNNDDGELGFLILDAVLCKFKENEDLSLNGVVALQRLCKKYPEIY

TTTTTTTTTTTTTTTTTTTTTTTTTTTTTTTTTTTTTTTTTTTTT (ssDNA) [(dT)45]: the binding result in data set [1] is recorded as “binds”. On the same count and under the same terms, for TTTTTTTTTTTTTTT (ssDNA) [(dT)15] the value was “binds”. Turning to TTTTTTTTTTTTTTTTTTTTTTTTT (ssDNA) [(dT)25], the binding result (with yeast RPA; in data set [2]) was “binds” throughout.

For TTTTTTTTTTTTTTTTTTTTTTTTTTTTTT (ssDNA) [(dT)30], the binding result in data set [1] is given as “binds”.
